Experimental data from PMC9671094.

Key:
PG16.VHVL (human) = test: SPR; IgG captured as ligand by anti-human IgG (Human Antibody Capture Kit) on a GLC chip, ProteOn XPR36; trimer as analyte; 1x HBS-EP+ pH 7.4 with 1 mg/ml BSA; 1:1 binding model; highest SOSIP concentration 5 uM or 10 uM
PG16 (human) = test: as above
PCT64.iGL (human) = test: as above
PG9.VHVL (human) = test: as above
PG16.iGL (human) = test: as above
PG9 (human) = test: as above
PG9.iGL.1MUT (human) = test: as above
[1] = molecular target: PG16.HCDR3 + 1MUT (human); test: as above
PG9.HCDR3.1MUT (human) = test: as above
[2] = molecular target: ApexGT2.2MUT trimer (HIV-1 isolate BG505); test: cryo-EM structure

**Q.** For BG505 SOSIP.D664 (complex), which Kd (PG16.VHVL (human)) is on record?
**A.** 1000 nM

**Q.** What about the Kd (PG16 (human)) of the same substance?
**A.** 38 nM

**Q.** And the Kd (PCT64.iGL (human))?
**A.** > 5 µM

**Q.** What about the Kd (PG9.VHVL (human)) of the same substance?
**A.** 72 nM

**Q.** What about the Kd (PG16.iGL (human)) of the same substance?
**A.** > 5 µM

**Q.** And the Kd (PG9 (human))?
**A.** 15.8 nM

**Q.** And the Kd (PG9.iGL.1MUT (human))?
**A.** 645 nM

**Q.** What about the Kd [1] of the same substance?
**A.** 273 nM

**Q.** What about the Kd (PG9.HCDR3.1MUT (human)) of the same substance?
**A.** 317 nM

**Q.** How did the stoichiometry N (Fab per trimer) [2] turn out when PCT64 LMCA Fab was run?
**A.** 1
